Measurements published in the supplement of paper PMC7125110.
± gives the standard error. For some of these results: Variants at the floor of the assay were thinned out.

B1: glmS ribozyme (parent)
chain: AUAAAAGCGCCAGAACUACAGAAAUGUAGUUGACGAGGAGGAGGUUUAUCGAAUUUUCGGCGGAUGCCUCCAAA

Variants of: B1
Experiment: kcat; higher = faster cleavage; RNA array
Conditions: with glucosamine-6-phosphate
Procedure, shortened: (§1)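 Using a hybridised Cy3 probe at 37 °C, barcoded ribozyme variants transcribed in situ by E. coli RNA polymerase on sequenced MiSeq chips were monitored across tiles imaged over ~14 h. The flow contained glucosamine-6-phosphate from 40 μM to 10 mM in HEPES/KCl/Mg(OAc)2 buffer. Signals were normalised to baseline and to non-cleaving reference variants before per-tile medians were fit to one- or two-exponential decays to yield kobs. Weighted Michaelis–Menten fits across concentrations gave kcat and KM.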

Row | Variant | kcat [s⁻¹]
1 | AUAAAAGCGCCAGAACUACAGAAAUGUAGUUGACGAGGAGGAGGUUUAUCGAAUUUUCGGAGGAUGUCUCUAAA [C61A C67U C71U] | 5.2e-05 ± 2.5e-05
2 | AUAAAAGCGCCAGAACUACAGAAAUGUAGUUGACGAGGAGGAGGUUUAUCGAAUUUUCGGGGGAUGCCUCAAAA [C61G C71A] | 1.34e-05 ± 3.8e-06
3 | AUAAAAGCGCCAGAACUACAGAAAUGUAGUUGACGAGGAGGAGGUUUAUCGAAUUUUCGGUGGAUACCUCCAAA [C61U G66A] | < 1e-05
4 | AUAAAAGCGCCAGAACUACAGAAAUGUAGUUGACGAGGAGGAGGUUUAUCGAAUUUUCGGCAGAUGCCUCCAAA [G62A] | < 1e-05
5 | AUAAAAGCGCCAGAACUACAGAAAUGUAGUUGACGAGGAGGAGGUUUAUCGAAUUUUCGGAGGAUGCCUCGAAA [C61A C71G] | 1.3e-05 ± 2.8e-06
6 | AUAAAAGCGCCAGAACUACAGAAAUGUAGUUGACGAGGAGGAGGUUUAUCGAAUUUUCGGGUGAUGCGUCCAAA [C61G G62U C68G] | 1.21e-05 ± 3.9e-06
7 | AUAAAAGCGCCAGAACUACAGAAAUGUAGUUGACGAGGAGGAGGUUUAUCGAAUUUUCGGUGGAUGCCUCCAAA [C61U] | 1.4e-05 ± 3.1e-06
8 | AUAAAAGCGCCAGAACUACAGAAAUGUAGUUGACGAGGAGGAGGUUUAUCGAAUUUUCGGGGGAUGCUUCCAAA [C61G C68U] | < 1e-05
9 | AUAAAAGCGCCAGAACUACAGAAAUGUAGUUGACGAGGAGGAGGUUUAUCGAAUUUUCGGUGCAUGCCUCCAAA [C61U G63C] | < 1e-05
10 | AUAAAAGCGCCAGAACUACAGAAAUGUAGUUGACGAGGAGGAGGUUUAUCGAAUUUUCGGGCGGAUGCUCCAAA [C61G G62C A64G U65A G66U C67G] | 1.06e-05 ± 1.8e-06
11 | AUAAAAGCGCCAGAACUACAGAAAUGUAGUUGACGAGGAGGAGGUUUAUCGAAUUUUCGGCAGAUGCUUCCAAA [G62A C68U] | < 1e-05
12 | AUAAAAGCGCCAGAACUACAGAAAUGUAGUUGACGAGGAGGAGGUUUAUCGAAUUUUCGGGGGAUGCCUGCAAA [C61G C70G] | 1.85e-05 ± 5.6e-06
13 | AUAAAAGCGCCAGAACUACAGAAAUGUAGUUGACGAGGAGGAGGUUUAUCGAAUUUUCGGGGGAUGCCACCAAA [C61G U69A] | 2.83e-05 ± 3.9e-06
14 | AUAAAAGCGCCAGAACUACAGAAAUGUAGUUGACGAGGAGGAGGUUUAUCGAAUUUUCGGAGGAGGUCUCCAAA [C61A U65G C67U] | 2.68e-05 ± 7.3e-06
15 | AUAAAAGCGCCAGAACUACAGAAAUGUAGUUGACGAGGAGGAGGUUUAUCGAAUUUUCGGUGGGUGCCUCCAAA [C61U A64G] | 2.3e-05 ± 9.4e-07
16 | AUAAAAGCGCCAGAACUACAGAAAUGUAGUUGACGAGGAGGAGGUUUAUCGAAUUUUCGGUGGAUGCCUCUAAA [C61U C71U] | 2.55e-05 ± 4.8e-07
17 | AUAAAAGCGCCAGAACUACAGAAAUGUAGUUGACGAGGAGGAGGUUUAUCGAAUUUUCGGCAGAUGCCUACAAA [G62A C70A] | 4.15e-05 ± 2e-05

Variants of: B1
Experiment: self-cleavage kobs at 640 uM GlcN6P; higher = faster cleavage; RNA array
Conditions: with glucosamine-6-phosphate
Procedure, shortened: as §1

Row | Variant | self-cleavage kobs at 640 uM GlcN6P [s⁻¹]
18 | AUAAAAGCGCCAGAACUACAGAAAUGUAGUUGACGAGGAGGAGGUUUAUCGAAUUUUCGGAGGAUGUCUCUAAA [C61A C67U C71U] | 8.57e-05 ± 2.8e-05
19 | AUAAAAGCGCCAGAACUACAGAAAUGUAGUUGACGAGGAGGAGGUUUAUCGAAUUUUCGGUGGAUACCUCCAAA [C61U G66A] | < 1e-05
20 | AUAAAAGCGCCAGAACUACAGAAAUGUAGUUGACGAGGAGGAGGUUUAUCGAAUUUUCGGGCGGAUGCUCCAAA [C61G G62C A64G U65A G66U C67G] | < 1e-05
21 | AUAAAAGCGCCAGAACUACAGAAAUGUAGUUGACGAGGAGGAGGUUUAUCGAAUUUUCGGUGGAUGCCUCUAAA [C61U C71U] | < 1e-05
22 | AUAAAAGCGCCAGAACUACAGAAAUGUAGUUGACGAGGAGGAGGUUUAUCGAAUUUUCGGCAGAUGCCUACAAA [G62A C70A] | 7.27e-05 ± 2.4e-05

Variants of: B1
Experiment: self-cleavage kobs at 40 uM GlcN6P; higher = faster cleavage; RNA array
Conditions: with glucosamine-6-phosphate
Procedure, shortened: as §1

Row | Variant | self-cleavage kobs at 40 uM GlcN6P [s⁻¹]
23 | AUAAAAGCGCCAGAACUACAGAAAUGUAGUUGACGAGGAGGAGGUUUAUCGAAUUUUCGGCAGAUGCCUCCAAA [G62A] | < 1e-05
24 | AUAAAAGCGCCAGAACUACAGAAAUGUAGUUGACGAGGAGGAGGUUUAUCGAAUUUUCGGUGGAUGCCUCCAAA [C61U] | < 1e-05
25 | AUAAAAGCGCCAGAACUACAGAAAUGUAGUUGACGAGGAGGAGGUUUAUCGAAUUUUCGGUGGGUGCCUCCAAA [C61U A64G] | < 1e-05
26 | AUAAAAGCGCCAGAACUACAGAAAUGUAGUUGACGAGGAGGAGGUUUAUCGAAUUUUCGGUGGAUGCCUCUAAA [C61U C71U] | < 1e-05
27 | AUAAAAGCGCCAGAACUACAGAAAUGUAGUUGACGAGGAGGAGGUUUAUCGAAUUUUCGGCAGAUGCCUACAAA [G62A C70A] | < 1e-05

Variants of: B1
Experiment: self-cleavage kobs at 10000 uM GlcN6P; higher = faster cleavage; RNA array
Conditions: with glucosamine-6-phosphate
Procedure, shortened: as §1

Row | Variant | self-cleavage kobs at 10000 uM GlcN6P [s⁻¹]
28 | AUAAAAGCGCCAGAACUACAGAAAUGUAGUUGACGAGGAGGAGGUUUAUCGAAUUUUCGGCAGAUGCCUCCAAA [G62A] | < 1e-05
29 | AUAAAAGCGCCAGAACUACAGAAAUGUAGUUGACGAGGAGGAGGUUUAUCGAAUUUUCGGUGGAUGCCUCCAAA [C61U] | 1.19e-05 ± 1.4e-06
30 | AUAAAAGCGCCAGAACUACAGAAAUGUAGUUGACGAGGAGGAGGUUUAUCGAAUUUUCGGGCGGAUGCUCCAAA [C61G G62C A64G U65A G66U C67G] | < 1e-05
31 | AUAAAAGCGCCAGAACUACAGAAAUGUAGUUGACGAGGAGGAGGUUUAUCGAAUUUUCGGCAGAUGCUUCCAAA [G62A C68U] | < 1e-05

Variants of: B1
Experiment: self-cleavage kobs at 2500 uM GlcN6P; higher = faster cleavage; RNA array
Conditions: with glucosamine-6-phosphate
Procedure, shortened: as §1

Row | Variant | self-cleavage kobs at 2500 uM GlcN6P [s⁻¹]
32 | AUAAAAGCGCCAGAACUACAGAAAUGUAGUUGACGAGGAGGAGGUUUAUCGAAUUUUCGGUGGAUGCCUCCAAA [C61U] | 2.23e-05 ± 2.6e-06
33 | AUAAAAGCGCCAGAACUACAGAAAUGUAGUUGACGAGGAGGAGGUUUAUCGAAUUUUCGGUGCAUGCCUCCAAA [C61U G63C] | < 1e-05

Variants of: B1
Experiment: KM; higher = weaker cofactor use; RNA array
Conditions: with glucosamine-6-phosphate
Procedure, shortened: as §1

Row | Variant | KM [µM]
34 | AUAAAAGCGCCAGAACUACAGAAAUGUAGUUGACGAGGAGGAGGUUUAUCGAAUUUUCGGUGGGUGCCUCCAAA [C61U A64G] | 1200 ± 250
35 | AUAAAAGCGCCAGAACUACAGAAAUGUAGUUGACGAGGAGGAGGUUUAUCGAAUUUUCGGUGGAUGCCUCUAAA [C61U C71U] | 2880 ± 200

Variants of: B1
Experiment: self-cleavage kobs at 160 uM GlcN6P; higher = faster cleavage; RNA array
Conditions: with glucosamine-6-phosphate
Procedure, shortened: as §1

Row | Variant | self-cleavage kobs at 160 uM GlcN6P [s⁻¹]
36 | AUAAAAGCGCCAGAACUACAGAAAUGUAGUUGACGAGGAGGAGGUUUAUCGAAUUUUCGGUGGGUGCCUCCAAA [C61U A64G] | < 1e-05
37 | AUAAAAGCGCCAGAACUACAGAAAUGUAGUUGACGAGGAGGAGGUUUAUCGAAUUUUCGGUGGAUGCCUCUAAA [C61U C71U] | < 1e-05
